This note sets out measurements from patent US20040152630A1.

The experiment deals with different isoforms of the 14-3-3. Briefly: not stated (R18 isolated by phage display; Wang et al. 1999 cited).

A word on the Kd: it is the free concentration of one partner at which half of the binding sites on the other are occupied at equilibrium, for simple one-to-one binding. A low value points to tighter binding.

The molecule PHCVPRDLSWLDLEANMCLP [R18 polypeptide (14-3-3 amphipathic groove binding antagonist)] registered a Kd of 80 nM.
